Experimental data from the supplement of paper PMC10724198.
± gives the standard deviation of the averaged measurements.

system: Saccharomyces cerevisiae; test: protein stability index of tFT-peptide fusion (C-terminal peptide) (PSI (0-1 scale)); higher = more stable (slower turnover); conditions: genetic background: wild type; temperature: 30 C
Description: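 Multiplexed protein stability (MPS) profiling in S. cerevisiae. Random 12-aa peptides (tFT-X12 library) are fused to the C-terminus of a sfGFP-mCherry tandem fluorescent timer, after mCherry and a GGGS linker. Cells are FACS-sorted into 8 mCherry/sfGFP bins and deep-sequenced. The protein stability index (PSI) is the read-weighted bin average, scaled from 0 (unstable) to 1 (stable). Only peptides with >10 reads are reported; cells were grown at 30 °C in SC-His with glucose.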
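Note: PSI is a weighted mean of sequencing reads over stability bins, variants kept only with over 10 reads, mCherry proximal and sfGFP distal, peptide attached via GGGS linker.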

Row | Sequence | protein stability index
1 | PLPLSPPLLPAP | 0.6 ± 0.0082
2 | PCASGSPRFCQR | 0.707 ± 0.025
3 | LTCRASNGIQAA | 0.677 ± 0.021
4 | ISFGSKLPHHLP | 0.657 ± 0.11
5 | SFFLMTPPPSLR | 0.698 ± 0.12
6 | LRRAPPSPPPPP | 0.716 ± 0.054
7 | PQGAYLFTSTCI | 0.753 ± 0.054
8 | LLSPFLPPPLFV | 0.563 ± 0.019
9 | KNKKKNQIENRT | 0.692 ± 0.0014
10 | SPPPSSTSTSTS | 0.688 ± 0.061
11 | SKNEIKNYNTKI | 0.642 ± 0.031
12 | CALCRLGVAWVS | 0.596 ± 0.021
13 | ISGRRPWGFGGE | 0.642 ± 0.041
14 | SSHYSSPAALPY | 0.696 ± 0.019
15 | KEGRKKKRQINT | 0.803 ± 0.076
16 | GGWEGLRGLGVG | 0.634 ± 0.031
17 | VGVLLGPVWFSV | 0.684 ± 0.042
18 | RVWAGGGGGDGC | 0.691 ± 0.021
19 | GLGWPPGEARRV | 0.621 ± 0.047
20 | PPPPPPNAPPSS | 0.647 ± 0.03
21 | VPFGPLRPALYL | 0.708 ± 0.018
22 | KPRTLRPDQNAT | 0.689 ± 0.0087
23 | APPSPPPPTSHP | 0.777 ± 0.051
24 | GKRRKKDGNKKR | 0.621 ± 0.066
25 | LFSDAWVLTDWW | 0.753 ± 0.044

Row | Sequence | protein stability index
26 | SSFPAGGWLFFL | 0.682 ± 0.029
27 | IHSPSAYLQPSF | 0.761 ± 0.029
28 | RCTWEATYNLRY | 0.749 ± 0.092
29 | PAPSASPPLLRC | 0.722 ± 0.03
30 | FRSFLSKLNGLF | 0.636 ± 0.03
31 | QPPLSDYHQARR | 0.683 ± 0.023
32 | SSPSPPSLLPSL | 0.70987 ± 0.00056
33 | PPPPIRRPASHL | 0.76 ± 0.058
34 | GYTDPYPAAAPS | 0.639 ± 0.056
35 | GEDGCGWSEAGG | 0.664 ± 0.017
36 | RPKWLCAIATAD | 0.687 ± 0.023
37 | GQRGGRGKENSD | 0.629 ± 0.04
38 | ENQGEKKKKKKR | 0.703 ± 0.022
39 | RILVYRKENRKN | 0.678 ± 0.052
40 | VSIGGLLGCVLF | 0.692 ± 0.048
41 | MRPSLIKVFLTR | 0.632 ± 0.04
42 | INQEKKLKNNKK | 0.70627 ± 0.0004
43 | VKIYPSHGKVRD | 0.6901 ± 0.00096
44 | PPPPYARHTALI | 0.691 ± 0.032
45 | RGGGVGRGLGGK | 0.605 ± 0.066
46 | VTHNTLLRTKVV | 0.518 ± 0.0069
47 | DERESLFPLCSG | 0.725 ± 0.015
48 | PSALGYFRWAVG | 0.68 ± 0.042
49 | NRQDASAPVCLL | 0.719 ± 0.049
50 | HVTHRAVNVPLE | 0.674 ± 0.029

Row | Sequence | protein stability index
51 | STAFRDSAMRDP | 0.664 ± 0.051
52 | AVLPSLWLWTKK | 0.682 ± 0.095
53 | HSRPRRQPPHSP | 0.705 ± 0.018
54 | SLSSAALFHGPF | 0.598 ± 0.065
55 | LIDLLRQVNVLR | 0.649 ± 0.0096
56 | PPPPAPPAPPLR | 0.732 ± 0.056
57 | GAEHGVRTTAVT | 0.658 ± 0.014
58 | ELKKKYNEKKRI | 0.6885 ± 0.002
59 | NRRPLVQNGKLF | 0.67849 ± 0.00026
60 | STPPPPPTFQLS | 0.691 ± 0.047
61 | QKTLKPEQVAEH | 0.68 ± 0.027
62 | KVRDTFRDFGLM | 0.673 ± 0.063
63 | ARVRAREGGDRG | 0.624 ± 0.0076
64 | SFLSPPSPPHSP | 0.639 ± 0.01
65 | LLPPPPSPPTPS | 0.686 ± 0.035
66 | SRNLRRLEIRRE | 0.743 ± 0.027
67 | AVCGSISSWMWF | 0.696 ± 0.0092
68 | RYCESKVFKERE | 0.742 ± 0.049
69 | LSTPWADPTSSP | 0.716 ± 0.096
70 | PSPLCDFTRSSI | 0.659 ± 0.025
71 | PLLSPPSPLPPF | 0.724 ± 0.022
72 | ALPPPPPHPSPS | 0.717 ± 0.019
73 | LDRDTSCYMLDF | 0.718 ± 0.03
74 | IKKKKKKGIILD | 0.71 ± 0.05
75 | ESFLLSLNLLSY | 0.6155 ± 0.0037

Row | Sequence | protein stability index
76 | GWRFGKVCGLGG | 0.726 ± 0.07
77 | PPPSPPRPLLPV | 0.701 ± 0.023
78 | VHAGVLTMADPT | 0.653 ± 0.05
79 | KREGEGLDWGEV | 0.7089 ± 0.0014
80 | SRAAGILCVVQI | 0.615 ± 0.084
81 | GARVRIRVNDKK | 0.677 ± 0.021
82 | FFFPSPPPPSLV | 0.749 ± 0.05
83 | APFSALFPANSV | 0.719 ± 0.15
84 | TTSPRNMIIYYR | 0.627 ± 0.037
85 | KKQQKKKNKNDR | 0.651 ± 0.017
86 | PPPHSSPPPSPP | 0.693 ± 0.069
87 | KKKHIRTEKDNK | 0.704 ± 0.014
88 | RTRLPYVPAPAP | 0.686 ± 0.0092
89 | GLSHPPNFLPSG | 0.6505 ± 0.00088
90 | GLQIERAVGIRH | 0.708 ± 0.028
91 | TVSAPLFFPLNW | 0.663 ± 0.034
92 | GGQGFWRLWCLG | 0.686 ± 0.05
93 | PPVRRPAHATTG | 0.722 ± 0.038
94 | GRSAVRADFPFF | 0.703 ± 0.16
95 | LLLPPLPPLSLS | 0.7135 ± 0.0058
96 | GCGDSLGGERRE | 0.643 ± 0.1
97 | CPSAPHNTLSTG | 0.68 ± 0.052
98 | TPPVHLPPSSFS | 0.744 ± 0.0023
